According to the supplement of paper PMC10567573:

B1: PPFIA4 (parent)
chain: PGVHRRYSALREESAKDWETSPLP
B2: CDC14A (parent)
chain: GPHPKSKIENGYPLHAPEAYFPYF

Variants of: B1
Test: protein stability index of a GFP-peptide fusion (GPS, HEK-293T) (PSI 1-6); higher = more stable
Conditions: c terminus: a fixed tail appended
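Further: lentivirally expressed fusions sorted by FACS into six bins by GFP to DsRed ratio, PSI derived from sequencing read proportions per bin multiplied by bin number.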

Variant | protein stability index
PGVHRRYNALREESAKDWETSPLP [S8N] | 4.34
PGVHRRYTALREESAKDWETSPLP [S8T] | 2.88
PGVHRRYEALREESAKDWETSPLP [S8E] | 4.35
PGVHRRYSALREESAKDWYTSPLP [E19Y] | 2.37
PGVHRRYSALREESAKDWRTSPLP [E19R] | 3.55
VGVHRRYSALREESAKDWETSPLP [P1V] | 3.74
FGVHRRYSALREESAKDWETSPLP [P1F] | 3.63
PGVHRRYSALREESLKDWETSPLP [A15L] | 4.12
PGVHRRYSALREESSKDWETSPLP [A15S] | 3.76
PGVHRRYSALREESQKDWETSPLP [A15Q] | 3.63
PGVHRRYSALREESNKDWETSPLP [A15N] | 3.92
PGVHRRYSALREESKKDWETSPLP [A15K] | 4.59
PGVNRRYSALREESAKDWETSPLP [H4N] | 4.52
PGVDRRYSALREESAKDWETSPLP [H4D] | 4.37
PGVMRRYSALREESAKDWETSPLP [H4M] | 4.49
PGVERRYSALREESAKDWETSPLP [H4E] | 4.53
PGVHRRYSALMEESAKDWETSPLP [R11M] | 4.45
PGVHRRYSALAEESAKDWETSPLP [R11A] | 4.31
PGVHRRYSASREESAKDWETSPLP [L10S] | 4.53
PGVHRRYSALREELAKDWETSPLP [S14L] | 3.93
PGVHRRYSALREEPAKDWETSPLP [S14P] | 3.87
PGVHRRYSALREEMAKDWETSPLP [S14M] | 3.41
PGVHSRYSALREESAKDWETSPLP [R5S] | 4.58
PGVHQRYSALREESAKDWETSPLP [R5Q] | 4.6
PGVHRRYSALREESAKDWETKPLP [S21K] | 3.98
PGVHRRYSALREESAKDWETCPLP [S21C] | 3.88
PGVHRRYSALREESAKDWETMPLP [S21M] | 3.67
PGVHRRYSALREESAKDWETGPLP [S21G] | 3.25

Variant | protein stability index
PGRHRRYSALREESAKDWETSPLP [V3R] | 4.33
PGNHRRYSALREESAKDWETSPLP [V3N] | 4.45
PGVHRRYSALREESAPDWETSPLP [K16P] | 3.89
PGVHRRYSALREESACDWETSPLP [K16C] | 4.02
PGVHRRYSALREESANDWETSPLP [K16N] | 4.66
PGVHRRYSALREESAVDWETSPLP [K16V] | 4.2
PGVHRRYSALREESAKDNETSPLP [W18N] | 5.29
PGVHRRYSALREESAKDVETSPLP [W18V] | 4.67
PGVHRRPSALREESAKDWETSPLP [Y7P] | 4.24
PGVHRRISALREESAKDWETSPLP [Y7I] | 4.34
PGVHRRQSALREESAKDWETSPLP [Y7Q] | 4.9
PGVHRRWSALREESAKDWETSPLP [Y7W] | 4.2
PGVHREYSALREESAKDWETSPLP [R6E] | 4.88
PGVHRGYSALREESAKDWETSPLP [R6G] | 3.98
PGVHRWYSALREESAKDWETSPLP [R6W] | 2.71
PGVHRNYSALREESAKDWETSPLP [R6N] | 4.48
PGVHRRYSALREESAKAWETSPLP [D17A] | 3.29
PGVHRRYSALREESAKGWETSPLP [D17G] | 3.9
PGVHRRYSVLREESAKDWETSPLP [A9V] | 4.12
PGVHRRYSGLREESAKDWETSPLP [A9G] | 3.87
PGVHRRYSALREESAKDWETSTLP [P22T] | 3.04
PGVHRRYSALREESAKDWETSNLP [P22N] | 4.52
PGVHRRYSALREESAKDWETSKLP [P22K] | 4.23
PGVHRRYSALREESAKDWETSVLP [P22V] | 3.68
PGVHRRYSALREESAKDWETSHLP [P22H] | 4.28
PGVHRRYSALREPSAKDWETSPLP [E13P] | 3.11
PNVHRRYSALREESAKDWETSPLP [G2N] | 4.5

Variants of: B2
Test: as above
Conditions: c terminus: a fixed tail appended

Variant | protein stability index
GPHPCSKIENGYPLHAPEAYFPYF [K5C] | 2.23
GPHPLSKIENGYPLHAPEAYFPYF [K5L] | 2.37
GPHPFSKIENGYPLHAPEAYFPYF [K5F] | 1.29
GPHPQSKIENGYPLHAPEAYFPYF [K5Q] | 2.77
GPHPDSKIENGYPLHAPEAYFPYF [K5D] | 2.08
GPHPSSKIENGYPLHAPEAYFPYF [K5S] | 2.56
GPHPASKIENGYPLHAPEAYFPYF [K5A] | 2.26
GPHPVSKIENGYPLHAPEAYFPYF [K5V] | 1.92
GPHPMSKIENGYPLHAPEAYFPYF [K5M] | 1.87
GPHPISKIENGYPLHAPEAYFPYF [K5I] | 2.06
GPHPTSKIENGYPLHAPEAYFPYF [K5T] | 2.13
GPHPESKIENGYPLHAPEAYFPYF [K5E] | 2.5
GPHPWSKIENGYPLHAPEAYFPYF [K5W] | 1.92
GPHPNSKIENGYPLHAPEAYFPYF [K5N] | 2.07
GPHPYSKIENGYPLHAPEAYFPYF [K5Y] | 1.66
GPHPRSKIENGYPLHAPEAYFPYF [K5R] | 2.38
GPHPGSKIENGYPLHAPEAYFPYF [K5G] | 1.99
GPHMKSKIENGYPLHAPEAYFPYF [P4M] | 2.33
GPHYKSKIENGYPLHAPEAYFPYF [P4Y] | 1.89
GPHDKSKIENGYPLHAPEAYFPYF [P4D] | 2.12

Variant | protein stability index
GPHIKSKIENGYPLHAPEAYFPYF [P4I] | 1.91
GPHSKSKIENGYPLHAPEAYFPYF [P4S] | 1.86
GPHNKSKIENGYPLHAPEAYFPYF [P4N] | 2.48
GPHCKSKIENGYPLHAPEAYFPYF [P4C] | 2.27
GPHAKSKIENGYPLHAPEAYFPYF [P4A] | 2.52
GPHVKSKIENGYPLHAPEAYFPYF [P4V] | 2.84
GPHEKSKIENGYPLHAPEAYFPYF [P4E] | 2.11
GPHWKSKIENGYPLHAPEAYFPYF [P4W] | 2.08
GPHLKSKIENGYPLHAPEAYFPYF [P4L] | 1.51
GPHFKSKIENGYPLHAPEAYFPYF [P4F] | 2.24
GPHTKSKIENGYPLHAPEAYFPYF [P4T] | 2
GPHHKSKIENGYPLHAPEAYFPYF [P4H] | 2.24
GPHGKSKIENGYPLHAPEAYFPYF [P4G] | 2.22
GPHKKSKIENGYPLHAPEAYFPYF [P4K] | 2.29
GPHQKSKIENGYPLHAPEAYFPYF [P4Q] | 2.23
GPHRKSKIENGYPLHAPEAYFPYF [P4R] | 2.8
GPHPKSKCENGYPLHAPEAYFPYF [I8C] | 2.45
GPHPKSKAENGYPLHAPEAYFPYF [I8A] | 2.54
GPHPKSKDENGYPLHAPEAYFPYF [I8D] | 3.34
